# From publication PMC4986892 (RNA, 2016)
# T1: S. pombe Dcp1:Dcp2RD decapping complex (S. pombe, UniProt Q9P805;O13828)
# T1 sequence 1: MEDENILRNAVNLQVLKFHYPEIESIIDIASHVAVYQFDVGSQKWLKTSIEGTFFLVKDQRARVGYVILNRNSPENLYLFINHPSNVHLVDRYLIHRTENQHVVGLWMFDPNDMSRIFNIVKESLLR
# T1 sequence 2: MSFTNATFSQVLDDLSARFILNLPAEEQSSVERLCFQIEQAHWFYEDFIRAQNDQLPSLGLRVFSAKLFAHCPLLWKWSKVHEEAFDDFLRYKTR
# T2: S. pombe Dcp1 (S. pombe, UniProt Q9P805)
# T2 sequence: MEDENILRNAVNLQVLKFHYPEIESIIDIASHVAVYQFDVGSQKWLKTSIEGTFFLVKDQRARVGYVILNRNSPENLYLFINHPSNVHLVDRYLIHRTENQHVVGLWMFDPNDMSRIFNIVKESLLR
# T3: S. pombe Dcp1:Dcp2_(RD+CD) decapping complex (S. pombe, UniProt Q9P805;O13828)
# T3 sequence 1: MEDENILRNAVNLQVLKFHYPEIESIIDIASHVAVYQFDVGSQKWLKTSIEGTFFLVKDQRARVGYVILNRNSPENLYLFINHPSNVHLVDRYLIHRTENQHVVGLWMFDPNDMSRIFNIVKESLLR
# T3 sequence 2: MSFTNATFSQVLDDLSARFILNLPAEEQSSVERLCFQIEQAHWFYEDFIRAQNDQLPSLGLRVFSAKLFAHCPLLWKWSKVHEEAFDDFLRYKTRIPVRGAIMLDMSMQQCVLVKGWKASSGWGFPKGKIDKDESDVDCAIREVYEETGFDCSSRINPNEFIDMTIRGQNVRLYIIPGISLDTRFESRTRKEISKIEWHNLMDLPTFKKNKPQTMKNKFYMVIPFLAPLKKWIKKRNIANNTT
# Experiments:
# [1] = target: T1, S. pombe Dcp1:Dcp2RD decapping complex; test: NMR titration
# [2] = target: T1, S. pombe Dcp1:Dcp2RD decapping complex; test: NMR titration; remark: listed apart in the source
# S. pombe Dcp1 = target: T2, S. pombe Dcp1; test: NMR titration
# [3] = target: T3, S. pombe Dcp1:Dcp2_(RD+CD) decapping …; test: fluorescence polarisation
# [4] = target: T1, S. pombe Dcp1:Dcp2RD decapping complex; test: fluorescence polarisation
binder,measurement,setting,value
APSDLATPQPSTFPQPPVESHSSFDIKQKILHLLNEGNEPKSPI (domain or fragment) [S. pombe Dcp2 C-terminal region (269–312)],Kd,[1],310000 ± 110000 nM
"SFSSNSSSDTNSILYAGPTFTHSPAASNLPIPTFLHSP [S. pombe Edc1 (144–181), as used for NMR]",binding result,[2],binds
VSQGTDSRLVTKPTSTFPSPPSPPSSSVWNKREH [S. pombe Xrn1 (1224–1257)],Kd,[1],640000 ± 170000 nM
S. pombe Xrn1 (1201–1328) (domain or fragment) TNPQFVVNTRAGKNRKTNVSANNVSQGTDSRLVTKPTSTFPSPPSPPSSSVWNKREHHPKPFSLHQVPPPESLIHKSKSKFSKGNHHSTNGTQSIRGRGGKRGKPLRSKELNRKHDHIVQPMGKLQIN,binding result,[2],binds
S. pombe Dcp2 C-terminal tail (267–350) (domain or fragment) STAPSDLATPQPSTFPQPPVESHSSFDIKQKILHLLNEGNEPKSPIQLPPVSNLPLNPPIQSSNSRLSHDNNSFDPFAYLGLDP,binding result,S. pombe Dcp1,binds
S. pombe Edc1 (144–215) (domain or fragment) SFSSNSSSDTNSILYAGPTFTHSPAASNLPIPTFLHSPVSEKAEWQPPTGSVNSNMPFQFHQSSSVPSTPSE,Kd,[3],415 nM
"Fluorescently labeled S. pombe Edc1 1–221 (S183C) (domain or fragment, 5-(iodoacetamido)-fluorescein on the cysteine introduced by S183C (labeling efficiency ~50%)) MQKDIGRRFQRNKKKINSKPGGAMVASSDVEFSLDGMSIMPQRDGNLQIPNFVKPKSTFATSNIGESNGKRNGDKVRGNRRSKSGHSSYAGSRISGGNSNSHLPSGVASAPAGLGIDKVAVGEVDSHLKSVSSYVSNSSGADRSFSSNSSSDTNSILYAGPTFTHSPAASNLPIPTFLHSPVCEKAEWQPPTGSVNSNMPFQFHQSSSVPSTPSEVAMGHN",Kd,[4],143 nM
same,Kd,[3],250 nM
GTEIQPIPPSIDPSLYVFP [S. pombe Dhh1 (401–419)],binding result,[2],binds
